In US20250243240A1:

Target: Vascular endothelial growth factor (VEGF) (Homo sapiens (Human)) (UniProt P15692)

relative titer: 6.6%
Substance: Peak 1 fraction of hydrophobic interaction chromatography of purified aflibercept (pool or library)
